*1 amine or outer side, *2 acyl side, *3 side chain or, on linkers, in order; H or OH if unused. Primed or numbered codes have the meaning given here. [ ]: non-standard residue; d: D form. The star is where a group is joined. C20 diacid = O=C(O)CCCCCCCCCCCCCCCCCCC(=O)*; C18 diacid = O=C(O)CCCCCCCCCCCCCCCCC(=O)*; γGlu = O=C(O)[C@H](CCC(=O)[*:2])N[*:1]; βAsp = O=C(O)[C@H](CC(=O)[*:2])N[*:1]; Trx′ = not defined here; AEEA = NCCOCCOCC(=O)O
B1: calcitonin derivative M27 (peptide)
peptide: {C20 diacid-γGlu}-ISQLSTIVLGRLSQELHRLQDYPRTDVGSGSP-NH2
SMILES: CC[C@H](C)[C@H](NC(=O)CC[C@H](NC(=O)CCCCCCCCCCCCCCCCCCC(=O)O)C(=O)O)C(=O)N[C@@H](CO)C(=O)N[C@@H](CCC(N)=O)C(=O)N[C@@H](CC(C)C)C(=O)N[C@@H](CO)C(=O)N[C@H](C(=O)N[C@H](C(=O)N[C@H](C(=O)N[C@@H](CC(C)C)C(=O)NCC(=O)N[C@@H](CCCNC(=N)N)C(=O)N[C@@H](CC(C)C)C(=O)N[C@@H](CO)C(=O)N[C@@H](CCC(N)=O)C(=O)N[C@@H](CCC(=O)O)C(=O)N[C@@H](CC(C)C)C(=O)N[C@@H](Cc1c[nH]cn1)C(=O)N[C@@H](CCCNC(=N)N)C(=O)N[C@@H](CC(C)C)C(=O)N[C@@H](CCC(N)=O)C(=O)N[C@@H](CC(=O)O)C(=O)N[C@@H](Cc1ccc(O)cc1)C(=O)N1CCC[C@H]1C(=O)N[C@@H](CCCNC(=N)N)C(=O)N[C@H](C(=O)N[C@@H](CC(=O)O)C(=O)N[C@H](C(=O)NCC(=O)N[C@@H](CO)C(=O)NCC(=O)N[C@@H](CO)C(=O)N1CCC[C@H]1C(N)=O)C(C)C)[C@@H](C)O)C(C)C)[C@@H](C)CC)[C@@H](C)O
B2: calcitonin derivative M13 (peptide)
peptide: {C20 diacid-γGlu}-ASQLSTAVLGRLSQELHRLEDYPRTDVGSGSP-NH2
SMILES: CC(C)C[C@H](NC(=O)[C@H](CCCNC(=N)N)NC(=O)CNC(=O)[C@H](CC(C)C)NC(=O)[C@@H](NC(=O)[C@H](C)NC(=O)[C@@H](NC(=O)[C@H](CO)NC(=O)[C@H](CC(C)C)NC(=O)[C@H](CCC(N)=O)NC(=O)[C@H](CO)NC(=O)[C@H](C)NC(=O)CC[C@H](NC(=O)CCCCCCCCCCCCCCCCCCC(=O)O)C(=O)O)[C@@H](C)O)C(C)C)C(=O)N[C@@H](CO)C(=O)N[C@@H](CCC(N)=O)C(=O)N[C@@H](CCC(=O)O)C(=O)N[C@@H](CC(C)C)C(=O)N[C@@H](Cc1c[nH]cn1)C(=O)N[C@@H](CCCNC(=N)N)C(=O)N[C@@H](CC(C)C)C(=O)N[C@@H](CCC(=O)O)C(=O)N[C@@H](CC(=O)O)C(=O)N[C@@H](Cc1ccc(O)cc1)C(=O)N1CCC[C@H]1C(=O)N[C@@H](CCCNC(=N)N)C(=O)N[C@H](C(=O)N[C@@H](CC(=O)O)C(=O)N[C@H](C(=O)NCC(=O)N[C@@H](CO)C(=O)NCC(=O)N[C@@H](CO)C(=O)N1CCC[C@H]1C(N)=O)C(C)C)[C@@H](C)O
B3: calcitonin derivative M12 (peptide)
peptide: {C20 diacid-γGlu}-ASQLSTAVLGRLSTELHRLQDYPRTDVGSGSP-NH2
SMILES: CC(C)C[C@H](NC(=O)[C@H](CCCNC(=N)N)NC(=O)CNC(=O)[C@H](CC(C)C)NC(=O)[C@@H](NC(=O)[C@H](C)NC(=O)[C@@H](NC(=O)[C@H](CO)NC(=O)[C@H](CC(C)C)NC(=O)[C@H](CCC(N)=O)NC(=O)[C@H](CO)NC(=O)[C@H](C)NC(=O)CC[C@H](NC(=O)CCCCCCCCCCCCCCCCCCC(=O)O)C(=O)O)[C@@H](C)O)C(C)C)C(=O)N[C@@H](CO)C(=O)N[C@H](C(=O)N[C@@H](CCC(=O)O)C(=O)N[C@@H](CC(C)C)C(=O)N[C@@H](Cc1c[nH]cn1)C(=O)N[C@@H](CCCNC(=N)N)C(=O)N[C@@H](CC(C)C)C(=O)N[C@@H](CCC(N)=O)C(=O)N[C@@H](CC(=O)O)C(=O)N[C@@H](Cc1ccc(O)cc1)C(=O)N1CCC[C@H]1C(=O)N[C@@H](CCCNC(=N)N)C(=O)N[C@H](C(=O)N[C@@H](CC(=O)O)C(=O)N[C@H](C(=O)NCC(=O)N[C@@H](CO)C(=O)NCC(=O)N[C@@H](CO)C(=O)N1CCC[C@H]1C(N)=O)C(C)C)[C@@H](C)O)[C@@H](C)O
B4: calcitonin derivative M60 (peptide)
peptide: {C20 diacid}-D[AEEA][AEEA]ASQLSTAVLGRLSEELHRLQDYPRTDVGSGSP-NH2
SMILES: CC(C)C[C@H](NC(=O)[C@H](CCCNC(=N)N)NC(=O)CNC(=O)[C@H](CC(C)C)NC(=O)[C@@H](NC(=O)[C@H](C)NC(=O)[C@@H](NC(=O)[C@H](CO)NC(=O)[C@H](CC(C)C)NC(=O)[C@H](CCC(N)=O)NC(=O)[C@H](CO)NC(=O)[C@H](C)NC(=O)COCCOCCNC(=O)COCCOCCNC(=O)[C@H](CC(=O)O)NC(=O)CCCCCCCCCCCCCCCCCCC(=O)O)[C@@H](C)O)C(C)C)C(=O)N[C@@H](CO)C(=O)N[C@@H](CCC(=O)O)C(=O)N[C@@H](CCC(=O)O)C(=O)N[C@@H](CC(C)C)C(=O)N[C@@H](Cc1c[nH]cn1)C(=O)N[C@@H](CCCNC(=N)N)C(=O)N[C@@H](CC(C)C)C(=O)N[C@@H](CCC(N)=O)C(=O)N[C@@H](CC(=O)O)C(=O)N[C@@H](Cc1ccc(O)cc1)C(=O)N1CCC[C@H]1C(=O)N[C@@H](CCCNC(=N)N)C(=O)N[C@H](C(=O)N[C@@H](CC(=O)O)C(=O)N[C@H](C(=O)NCC(=O)N[C@@H](CO)C(=O)NCC(=O)N[C@@H](CO)C(=O)N1CCC[C@H]1C(N)=O)C(C)C)[C@@H](C)O
B5: calcitonin derivative M44 (peptide)
peptide: {C18 diacid}-DASQLSTAVLGRLSDELHRLQDYPRTDVGSGSP-NH2
SMILES: CC(C)C[C@H](NC(=O)[C@H](CCCNC(=N)N)NC(=O)CNC(=O)[C@H](CC(C)C)NC(=O)[C@@H](NC(=O)[C@H](C)NC(=O)[C@@H](NC(=O)[C@H](CO)NC(=O)[C@H](CC(C)C)NC(=O)[C@H](CCC(N)=O)NC(=O)[C@H](CO)NC(=O)[C@H](C)NC(=O)[C@H](CC(=O)O)NC(=O)CCCCCCCCCCCCCCCCC(=O)O)[C@@H](C)O)C(C)C)C(=O)N[C@@H](CO)C(=O)N[C@@H](CC(=O)O)C(=O)N[C@@H](CCC(=O)O)C(=O)N[C@@H](CC(C)C)C(=O)N[C@@H](Cc1c[nH]cn1)C(=O)N[C@@H](CCCNC(=N)N)C(=O)N[C@@H](CC(C)C)C(=O)N[C@@H](CCC(N)=O)C(=O)N[C@@H](CC(=O)O)C(=O)N[C@@H](Cc1ccc(O)cc1)C(=O)N1CCC[C@H]1C(=O)N[C@@H](CCCNC(=N)N)C(=O)N[C@H](C(=O)N[C@@H](CC(=O)O)C(=O)N[C@H](C(=O)NCC(=O)N[C@@H](CO)C(=O)NCC(=O)N[C@@H](CO)C(=O)N1CCC[C@H]1C(N)=O)C(C)C)[C@@H](C)O
B6: calcitonin derivative M43 (peptide)
peptide: {C20 diacid-βAsp}-ASQLSTAVLGRLSDELHRLQDYPRTDVGSGSP-NH2
SMILES: CC(C)C[C@H](NC(=O)[C@H](CCCNC(=N)N)NC(=O)CNC(=O)[C@H](CC(C)C)NC(=O)[C@@H](NC(=O)[C@H](C)NC(=O)[C@@H](NC(=O)[C@H](CO)NC(=O)[C@H](CC(C)C)NC(=O)[C@H](CCC(N)=O)NC(=O)[C@H](CO)NC(=O)[C@H](C)NC(=O)C[C@H](NC(=O)CCCCCCCCCCCCCCCCCCC(=O)O)C(=O)O)[C@@H](C)O)C(C)C)C(=O)N[C@@H](CO)C(=O)N[C@@H](CC(=O)O)C(=O)N[C@@H](CCC(=O)O)C(=O)N[C@@H](CC(C)C)C(=O)N[C@@H](Cc1c[nH]cn1)C(=O)N[C@@H](CCCNC(=N)N)C(=O)N[C@@H](CC(C)C)C(=O)N[C@@H](CCC(N)=O)C(=O)N[C@@H](CC(=O)O)C(=O)N[C@@H](Cc1ccc(O)cc1)C(=O)N1CCC[C@H]1C(=O)N[C@@H](CCCNC(=N)N)C(=O)N[C@H](C(=O)N[C@@H](CC(=O)O)C(=O)N[C@H](C(=O)NCC(=O)N[C@@H](CO)C(=O)NCC(=O)N[C@@H](CO)C(=O)N1CCC[C@H]1C(N)=O)C(C)C)[C@@H](C)O
B7: calcitonin derivative M28 (peptide)
peptide: {C20 diacid-γGlu}-SSQLSTSVLGRLSQELHRLQDYPRTDVGSGSP-NH2
SMILES: CC(C)C[C@H](NC(=O)[C@H](CCCNC(=N)N)NC(=O)CNC(=O)[C@H](CC(C)C)NC(=O)[C@@H](NC(=O)[C@H](CO)NC(=O)[C@@H](NC(=O)[C@H](CO)NC(=O)[C@H](CC(C)C)NC(=O)[C@H](CCC(N)=O)NC(=O)[C@H](CO)NC(=O)[C@H](CO)NC(=O)CC[C@H](NC(=O)CCCCCCCCCCCCCCCCCCC(=O)O)C(=O)O)[C@@H](C)O)C(C)C)C(=O)N[C@@H](CO)C(=O)N[C@@H](CCC(N)=O)C(=O)N[C@@H](CCC(=O)O)C(=O)N[C@@H](CC(C)C)C(=O)N[C@@H](Cc1c[nH]cn1)C(=O)N[C@@H](CCCNC(=N)N)C(=O)N[C@@H](CC(C)C)C(=O)N[C@@H](CCC(N)=O)C(=O)N[C@@H](CC(=O)O)C(=O)N[C@@H](Cc1ccc(O)cc1)C(=O)N1CCC[C@H]1C(=O)N[C@@H](CCCNC(=N)N)C(=O)N[C@H](C(=O)N[C@@H](CC(=O)O)C(=O)N[C@H](C(=O)NCC(=O)N[C@@H](CO)C(=O)NCC(=O)N[C@@H](CO)C(=O)N1CCC[C@H]1C(N)=O)C(C)C)[C@@H](C)O

Target: T1, human amylin receptor (AMY3) on CHO-K1/Gal5/AMY3 cells (human, UniProt P30988 25-474; O60896 24-148)
T1 sequence (looked up) 1: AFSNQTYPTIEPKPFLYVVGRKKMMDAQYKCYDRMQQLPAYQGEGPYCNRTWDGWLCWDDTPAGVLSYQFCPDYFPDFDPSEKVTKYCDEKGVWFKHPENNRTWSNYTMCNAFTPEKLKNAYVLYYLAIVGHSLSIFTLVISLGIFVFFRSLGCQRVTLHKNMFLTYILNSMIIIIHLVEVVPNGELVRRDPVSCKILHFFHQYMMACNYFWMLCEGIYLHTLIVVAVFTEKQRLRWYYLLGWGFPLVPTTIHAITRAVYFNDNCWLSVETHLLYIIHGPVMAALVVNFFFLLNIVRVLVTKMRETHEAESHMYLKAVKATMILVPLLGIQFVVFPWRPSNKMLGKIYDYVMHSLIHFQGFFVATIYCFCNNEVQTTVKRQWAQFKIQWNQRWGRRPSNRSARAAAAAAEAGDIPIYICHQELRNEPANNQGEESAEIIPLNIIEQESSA
T1 sequence (looked up) 2: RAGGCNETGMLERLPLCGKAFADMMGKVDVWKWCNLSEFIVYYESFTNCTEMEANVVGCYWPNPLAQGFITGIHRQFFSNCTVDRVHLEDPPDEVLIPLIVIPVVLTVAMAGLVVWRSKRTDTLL
Assay: cell-based or functional assay

Binder	EC50/nM, CRE-luciferase in amylin receptor/CRE-luc CHO cells [nM]
B1	0.016
B2	0.017
B3	0.017
B4	0.016
B5	0.016
{C18 diacid-Trx′}-ASQLSTAVLGRLSDELHRLQDYPRTDVGSGSP-NH2 (reading uncertain) [calcitonin derivative M46]	0.119
{C20 diacid-Trx′-AEEA-AEEA}-ASQLSTAVLGRLSEELHRLQDYPRTDVGSGSP-NH2 (reading uncertain) [calcitonin derivative M61]	0.015
B6	0.017
B7	0.017

Source: patent EP4692114A1, “CALCITONIN ANALOGUE, AND DERIVATIVE THEREOF AND USE THEREOF” (Hangzhou Sciwind Biosciences Co., Ltd., priority 2023, dated 2024)
